The source of these data is US20070128190A1 (GLENMARK PHARMACEUTICALS S A, published 2007).

Numbering of substitutions follows the chain as printed. Names may count otherwise. Like-named read-outs stand apart in the source and are kept apart here.

For test [1], the target named is T1, TMC-2206.
T1 construct: murine IgG1/κ secreted by hybridoma BHA2.1; labelled with Eu-N1-ITC where used as tracer; also called BHA2.1
Description: ELISA, GST fusion protein on immobilized TMC-2206. The protocol: The Kᵢ assays were performed as described above in Example 2. […] Plates were sealed and coating occurred overnight at 4° C. The next morning, the plates were washed twice with TBS solution and then blocked using 200 μL of the blocking solution described above for 1 hour at room temperature with shaking. After blocking, the blocking solution was removed but the wells were not washed. Instead, a serial dilution of GST fusion protein was made, added to the wells and then incubated for 2 hours at room temperature with shaking. The wells were then aspirated and a TBS washing buffer applied for 5 minutes at room temperature. The washing step was repeated twice more before the secondary antibody was applied. The secondary antibody step consisted of Amersham's HRP-conjugated rabbit anti-GST antibody diluted 1:2000 in blocking buffer. One hundred μL of secondary antibody was added to each well and incubated at room temperature for 1.5 hours with shaking. The wells were again aspirated and washed three times with wash buffer before adding the substrate reaction mixture. One hundred μL of substrate reaction mixture (1:1 dilution of TMB kit) was then added to each well for 6 minutes. […] The reaction within the wells was then read and quantified by spectrophotometric absorption using the Molecular Dynamics plate reader and associated Softmax software, respectively. […]

Test [2] deals with T2, human platelet α2β1 integrin (immobilized on microtiter plates) (human, UniProt P17301 30-1181; P05556 21-798).
T2 construct: plates custom-coated with human platelet α2β1 by GTI Inc; also called immobilized α2β1 integrin; α2β1-coated plates
T2 sequence (P17301 30-1181 E534K limits assumed, chain 1 of 2): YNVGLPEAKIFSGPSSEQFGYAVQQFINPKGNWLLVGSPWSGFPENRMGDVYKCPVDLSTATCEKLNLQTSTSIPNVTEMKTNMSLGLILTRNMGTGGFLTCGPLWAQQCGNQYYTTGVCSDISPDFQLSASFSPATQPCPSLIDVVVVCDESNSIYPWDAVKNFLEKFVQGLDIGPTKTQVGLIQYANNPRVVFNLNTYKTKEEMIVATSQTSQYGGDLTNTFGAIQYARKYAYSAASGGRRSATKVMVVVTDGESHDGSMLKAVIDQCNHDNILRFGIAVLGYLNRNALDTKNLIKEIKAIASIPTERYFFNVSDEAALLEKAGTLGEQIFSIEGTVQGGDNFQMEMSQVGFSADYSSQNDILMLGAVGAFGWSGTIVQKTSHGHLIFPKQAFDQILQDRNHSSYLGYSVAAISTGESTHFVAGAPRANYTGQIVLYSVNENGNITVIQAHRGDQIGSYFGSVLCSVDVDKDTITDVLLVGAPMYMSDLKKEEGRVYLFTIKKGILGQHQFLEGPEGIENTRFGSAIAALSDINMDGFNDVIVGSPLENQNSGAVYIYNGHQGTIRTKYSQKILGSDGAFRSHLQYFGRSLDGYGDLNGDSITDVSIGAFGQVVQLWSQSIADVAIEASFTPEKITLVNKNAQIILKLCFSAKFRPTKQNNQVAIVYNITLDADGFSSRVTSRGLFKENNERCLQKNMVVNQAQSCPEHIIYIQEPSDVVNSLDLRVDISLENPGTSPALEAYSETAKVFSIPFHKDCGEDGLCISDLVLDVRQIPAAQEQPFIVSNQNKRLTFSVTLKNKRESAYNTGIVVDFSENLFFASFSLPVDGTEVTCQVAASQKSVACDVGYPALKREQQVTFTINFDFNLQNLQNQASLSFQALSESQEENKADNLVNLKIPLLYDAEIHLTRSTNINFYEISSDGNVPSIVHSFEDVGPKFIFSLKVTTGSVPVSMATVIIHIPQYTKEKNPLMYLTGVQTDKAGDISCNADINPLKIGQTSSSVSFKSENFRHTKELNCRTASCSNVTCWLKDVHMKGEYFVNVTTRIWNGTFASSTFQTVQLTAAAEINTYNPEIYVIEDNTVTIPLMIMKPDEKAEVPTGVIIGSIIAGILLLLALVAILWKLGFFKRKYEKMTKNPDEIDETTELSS
T2 sequence (P05556 21-798 limits assumed, chain 2 of 2): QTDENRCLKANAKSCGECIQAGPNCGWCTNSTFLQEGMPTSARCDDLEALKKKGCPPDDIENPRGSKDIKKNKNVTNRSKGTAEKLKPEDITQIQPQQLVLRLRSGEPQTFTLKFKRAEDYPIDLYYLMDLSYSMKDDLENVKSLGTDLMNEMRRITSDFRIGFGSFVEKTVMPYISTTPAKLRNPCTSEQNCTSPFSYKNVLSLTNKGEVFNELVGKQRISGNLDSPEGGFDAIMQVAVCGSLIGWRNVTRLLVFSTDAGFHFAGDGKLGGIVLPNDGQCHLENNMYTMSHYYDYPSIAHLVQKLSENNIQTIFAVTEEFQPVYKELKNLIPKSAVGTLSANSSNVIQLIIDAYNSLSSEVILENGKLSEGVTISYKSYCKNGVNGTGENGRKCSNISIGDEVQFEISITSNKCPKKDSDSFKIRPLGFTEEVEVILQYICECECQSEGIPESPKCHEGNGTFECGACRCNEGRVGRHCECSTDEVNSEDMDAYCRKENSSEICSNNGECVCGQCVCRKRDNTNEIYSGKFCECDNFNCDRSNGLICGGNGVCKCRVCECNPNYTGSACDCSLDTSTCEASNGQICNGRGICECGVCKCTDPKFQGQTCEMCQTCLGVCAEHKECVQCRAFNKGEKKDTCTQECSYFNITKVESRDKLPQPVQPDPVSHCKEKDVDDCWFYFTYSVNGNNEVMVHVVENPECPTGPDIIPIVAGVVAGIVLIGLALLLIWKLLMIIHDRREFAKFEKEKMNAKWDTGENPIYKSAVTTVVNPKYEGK
Briefly: competition with Eu-TMC-2206 on human platelet α2β1-coated plate. As to the method:
(§1) Each labeled antibody mixture was applied to a separate PD-10 column (GE Biosciences, Piscataway, N.J.) pre-equilibrated with Running Buffer (50 mM Tris, pH 7.4 and 138 mM NaCl). Fractions (0.5 mL) were collected and assayed for total protein (Bradford reagent; Bio-Rad Laboratories, Hercules, Calif.) using a SpectraMax 384 absorbance plate reader and for europium after 1:10.000 dilution in DELFIA Enhancement Solution (Perkin-Elmer) by time-resolved fluorescence (TRF) using a Victor2 multi-label plate reader (Perkin Elmer). The fractions that were positive for both protein and Eu label were pooled and applied to new PD-10 columns and samples collected and assayed for total protein and for europium content by TRF calibrated against a europium standard solution (Perkin-Elmer) to calculate the fluor: protein ratio. […] After incubating the sealed plates for 1 hr at 37° C. to allow binding to reach equilibrium, 2 μL samples were transferred from each well into a fresh well containing DELFIA Enhancement Solution (100 μL/well; Perkin-Elmer) for the measurement of free (unbound) label. Enhancement Solution (100 μL/well) was added to the emptied wells for the measurement of bound label. The plate was shaken (Titer Plate Shaker speed setting of 5 for 5 minutes at room temperature) and time-resolved fluorescent (TRF) intensities were read using a Victor2 multi-label plate reader (Perkin-Elmer Wallac, Boston, Mas.).

For test [3], the target named is T2, human platelet α2β1 integrin …. The test is described as above. This is another data set of the same source.
For test [4] the target is unchanged. Description: competition with Eu-TMC-2206 on human platelet α2β1-coated plate, Cheng-Prusoff. As to the method: as §1, with “Enhancement Solution (100 μL/well) was added to the emptied wells for the measurement of bound label.” left out
For test [5], the target named is human α2 integrin with endogenous hamster β1 on CHO cells (human; hamster). Briefly: cell-based or functional assay.
Chain of human α2 integrin with endogenous hamster β1 on CHO cells (human; hamster) (P17301 30-1181 E534K): as the sequence (P17301 30-1181 E534K limits assumed, chain 1 of 2) above
Test [6] has as its target T3, Humanized TMC-2206 (hIgG4/κ VH12.0/VL10.0Q).
T3 construct: labelled with Eu or Alexa-488 in some assays
Description: fusion protein competing Eu-humanized TMC-2206 off α2β1-coated plates. The source says:
The inhibition curves were fitted with the “one site competition” model using Prism software (GraphPad, Inc.) to obtain IC₅₀ values and to calculate the Kᵢ using the equation of Cheng and Prusoff (1973) and the respective values for KD from above.
The cloning of the human, rhesus macaque, rat, and mouse α2 I domains were described in Example 12. Cynomolgus and additional rhesus monkey α2 I domains were cloned from cDNA derived from total RNA extracted from skin tissue (MediCorp, Inc., Montreal, QC).

The target in test [7] is T1, TMC-2206. Description: fusion protein competing Eu-TMC-2206 off α2β1-coated plate. The protocol: After incubating the sealed plates for 1 hr at 37° C. to allow binding to reach equilibrium, 2 μL samples were transferred from each well into a fresh well containing DELFIA Enhancement Solution (100 μL/well; Perkin-Elmer) for the measurement of free (unbound) label. Enhancement Solution (100 μL/well) was added to the emptied wells for the measurement of bound label. The plate was shaken (Titer Plate Shaker speed setting of 5 for 5 minutes at room temperature) and time-resolved fluorescent (TRF) intensities were read using a Victor2 multi-label plate reader (Perkin-Elmer Wallac, Boston, Mas.).
The fusion proteins were then expressed and purified as described above for the human GST-α2 I domain fusion protein. […] Therefore, these and the primate fusion proteins were further purified by size exclusion chromatography on a Sephadex 75 10/30 (GE-Amersham) column (primate) by FPLC on an Akta-Basic FPLC system (GE-Amersham) to yield a monomeric fraction. […] The Kᵢ assays were performed as described above in Example 2. […] Plates were sealed and coating occurred overnight at 4° C. The next morning, the plates were washed twice with TBS solution and then blocked using 200 μL of the blocking solution described above for 1 hour at room temperature with shaking. After blocking, the blocking solution was removed but the wells were not washed. […]

Test [8] has as its target T1, TMC-2206. The description is as above. As to the method: Wells in a 96 well microtiter plate were coated with platelet α2β1-integrin (custom-coated with human platelet α2β1 by GTI Inc., Wis.) and then blocked with nonfat milk. […] After concentration in prewashed MicroSep concentrators (30-kDa cutoff; Pall Life Sciences at 9500 rpm (7000×g) in a JA-20 rotor (Beckman Instruments, Inc.) for 20 minutes at 4° C.), antibodies were adjusted to 4.0 mg/mL with PBS containing a final concentration of 100 mM NaHCO₃, pH 9.3. The mAb/bicarbonate mixture (0.250 mL) was gently mixed into a vial containing 0.2 mg N¹-(p-isothiocyanatobenzyl)-diethylenetriamine-N¹,N²,N³N³-tetraacetic acid chelated with Eu³⁺ (Eu-N1-ITC; Perkin Elmer Life Sciences) and reacted overnight at 4° C. without stirring. Each labeled antibody mixture was applied to a separate PD-10 column (GE Biosciences, Piscataway, N.J.) pre-equilibrated with Running Buffer (50 mM Tris, pH 7.4 and 138 mM NaCl). Fractions (0.5 mL) were collected and assayed for total protein (Bradford reagent; Bio-Rad Laboratories, Hercules, Calif.) using a SpectraMax 384 absorbance plate reader and for europium after 1:10.000 dilution in DELFIA Enhancement Solution (Perkin-Elmer) by time-resolved fluorescence (TRF) using a Victor2 multi-label plate reader (Perkin Elmer). The fractions that were positive for both protein and Eu label were pooled and applied to new PD-10 columns and samples collected and assayed for total protein and for europium content by TRF calibrated against a europium standard solution (Perkin-Elmer) to calculate the fluor: protein ratio.
This is another data set of the same source.

In test [9] the target is T1, TMC-2206. Described as above. This is another data set of the same source.
Test [10] deals with T1, TMC-2206. Briefly: ELISA, GST fusion protein on immobilized TMC-2206 (Kd apparent). The protocol: The fusion proteins were then expressed and purified as described above for the human GST-α2 I domain fusion protein. […] Therefore, these and the primate fusion proteins were further purified by size exclusion chromatography on a Sephadex 75 10/30 (GE-Amersham) column (primate) by FPLC on an Akta-Basic FPLC system (GE-Amersham) to yield a monomeric fraction. […] The Kᵢ assays were performed as described above in Example 2. […] Plates were sealed and coating occurred overnight at 4° C. The next morning, the plates were washed twice with TBS solution and then blocked using 200 μL of the blocking solution described above for 1 hour at room temperature with shaking. After blocking, the blocking solution was removed but the wells were not washed. Instead, a serial dilution of GST fusion protein was made, added to the wells and then incubated for 2 hours at room temperature with shaking. The wells were then aspirated and a TBS washing buffer applied for 5 minutes at room temperature. The washing step was repeated twice more before the secondary antibody was applied. The secondary antibody step consisted of Amersham's HRP-conjugated rabbit anti-GST antibody diluted 1:2000 in blocking buffer. One hundred μL of secondary antibody was added to each well and incubated at room temperature for 1.5 hours with shaking. The wells were again aspirated and washed three times with wash buffer before adding the substrate reaction mixture. One hundred μL of substrate reaction mixture (1:1 dilution of TMB kit) was then added to each well for 6 minutes. The reaction was stopped by adding 100 μL of 0.1M H₂SO₄. The reaction within the wells was then read and quantified by spectrophotometric absorption using the Molecular Dynamics plate reader and associated Softmax software, respectively. Kd values were then estimated from the EC₅₀ values using Prism software (Graphpad, Calif.).

T3 sequence (heavy, as listed by the source, chain 1 of 2): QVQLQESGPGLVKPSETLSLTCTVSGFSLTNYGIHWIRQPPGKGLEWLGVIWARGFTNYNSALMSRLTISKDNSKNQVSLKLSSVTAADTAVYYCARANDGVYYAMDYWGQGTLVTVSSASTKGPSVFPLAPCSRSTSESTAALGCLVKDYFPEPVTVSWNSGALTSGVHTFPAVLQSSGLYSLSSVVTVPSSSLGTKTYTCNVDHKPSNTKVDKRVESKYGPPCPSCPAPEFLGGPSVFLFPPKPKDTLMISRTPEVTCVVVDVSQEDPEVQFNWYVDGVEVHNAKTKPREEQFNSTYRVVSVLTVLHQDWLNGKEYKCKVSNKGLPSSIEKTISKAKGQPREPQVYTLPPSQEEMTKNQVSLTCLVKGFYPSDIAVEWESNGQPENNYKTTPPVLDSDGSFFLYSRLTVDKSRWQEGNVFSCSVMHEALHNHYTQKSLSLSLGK
T3 sequence (light, as listed by the source, chain 2 of 2): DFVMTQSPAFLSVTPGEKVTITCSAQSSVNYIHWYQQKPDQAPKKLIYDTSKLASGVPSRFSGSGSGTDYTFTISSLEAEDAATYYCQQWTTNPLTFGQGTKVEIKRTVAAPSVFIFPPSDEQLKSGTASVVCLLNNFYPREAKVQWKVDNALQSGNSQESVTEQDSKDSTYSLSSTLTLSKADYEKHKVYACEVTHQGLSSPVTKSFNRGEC

B1: GST-mouse α2 I domain fusion protein (other)
chain: SPDFQFLTSFSPAVQACPSLVDVVVVCDESNSIYPWEAVKNFLVKFVTGLDIGPKKTQVALIQYANEPRIIFNLNDFETKEDMVQATSETRQHGGDLTNTFRAIEFARDYAYSQTSGGRPGATKVMVVVTDGESHDGSKLKTVIQQCNDDEILRFGIAVLGYLNRNALDTKNLIKEIKAIASTPTERYFFNVSDEAALLEKAGTLGEQIFSIEGTVQGGDNFQMEMSQ
notes: also called murine α2 I-GST fusion protein; not shown: glutathione S-transferase tag encoded by vector pGEX-2TK
As for B1, the “fold shift in affinity” value with TMC-2206 [1] was over 1500 fold.

B2: mouse-human chimeric TMC-2206 antibody (wild type chimera) (antibody, human IgG1, V domains shown)
VH: QVQLKESGPGLVAPSQSLSITCTVSGFSLTNYGIHWVRQPPGKGLEWLGVIWARGFTNYNSALMSRLIITKDNSQSQVFLKMNSLQPDDSATYFCARANDGVYYAMDYWGQGTSVTVSS
VL: QFVLTQSPAFLSASPGEKVTMTCSANSSVNYIHWYQQKSGTSPKKWIYDTSKLASGVPVRFSGSGSGTSYSLTISSMETEDAATYYCQQWTTNPLTFGAGTRVELK
notes: murine VH and VL on human IgG1 Fc and human κ constant region; also called wt chimera
For orientation: Ki means the equilibrium dissociation constant of an inhibitor or competing ligand from its target. A higher Ki goes with weaker binding. Turning to B2, the figures for the Ki in test [2], in test [3] and in test [4] were 0.26 nM, 0.52 nM and 0.27 nM, respectively. Besides, in test [5], the “EC50, inhibition of adhesion of CHO-α2 cells to collagen Type I” value amounted to 1.8 nM.

B3: mouse-human chimeric TMC-2206 antibody carrying the two LC mutations of the SalI site (antibody, human IgG1, V domains shown)
VH: B2 VH
VL: B2 VL with E104D, L105I
notes: human IgG1 Fc and human κ constant region; 'L1061' is printed for L106I; also called chimeric form carrying the two LC mutations
In [4], B3 displayed a Ki of 0.27 nM.

B4: GST-rhesus α2 I domain fusion protein (other)
chain: SPDFQLSASFSPATQPCPSLIDVVVVCDESNSIYPWDAVKNFLEKFVQGLDIGPTKTQVGLIQYANNPRVVFNLNTYKTKEEMIVATSQTSQYGGDLTNTFGAIQYARKYAYSAASGGRRSATKVMVVVTDGESHDGSMLKAVIDQCNHDNILRFGIAVLGYLNRNALDTKNLIKEIKAIASIPTERYFFNVSDEAALLEKAGTLGEQIFSIEGTV
notes: also called rhesus GST-α2 I; not shown: glutathione S-transferase tag encoded by vector pGEX-2TK
With B4, the Ki in test [6] turned out to be 0.4 nM; with TMC-2206 [7] it was 4.4 nM.

B5: GST-cynomolgus α2 I domain fusion protein of Example 12 (aspartic acid at position 40) (other)
chain: B4 chain with K40D
notes: also called cynomolgus monkey GST-α2 I; polymorphic cynomolgus I domain; not shown: glutathione S-transferase tag encoded by vector pGEX-2TK
B5: the binding result with TMC-2206 [1] is “no binding (tested: 40 nM)”.

B6: GST-human α2 I domain fusion protein (other)
chain: GSSPDFQLSASFSPATQPCPSLIDVVVVCDESNSIYPWDAVKNFLEKFVQGLDIGPTKTQVGLIQYANNPRVVFNLNTYKTKEEMIVATSQTSQYGGDLTNTFGAIQYARKYAYSAASGGRRSATKVMVVVTDGESHDGSMLKAVIDQCNHDNILRFGIAVLGYLNRNALDTKNLIKEIKAIASIPTERYFFNVSDEAALLEKAGTLGEQIFSIEGTVEFIVTD
notes: the reverse primer ends at ...SIEGTV; also called GST-α2 I domain; hα2I; not shown: glutathione S-transferase tag encoded by vector pGEX-2TK
Take B6: the Ki in the test with TMC-2206 [8] stood at 0.18 nM; in test [6], 0.57 nM; with TMC-2206 [9], 0.28 nM; with TMC-2206 [7] it was 0.33 nM.

B7: GST-hα2 I domain A114Q (other)
chain: B6 chain with A116Q
notes: same construct as m41; not shown: GST carrier with the pGEX-2TK vector linker at the N end
B7: affinity in the test with TMC-2206 [8] was put at a Ki of 0.64 nM. In addition, the Kd with TMC-2206 [10] worked out at 0.19 nM.

B8: GST-hα2 I domain A115T (other)
chain: B6 chain with A117T
notes: as for B7
With B8, the affinity in the test with TMC-2206 [8] corresponds to a Ki of 0.76 nM. Also, in the test with TMC-2206 [10], the Kd is 0.19 nM.
